The record followed here is publication PMC6486591, “Cryo-EM structures of the pore-forming A subunit from the Yersinia entomophaga ABC toxin” (Nature Communications, 2019).

The target of test [1] is T1, YenA1 (Yersinia entomophaga, UniProt B6A877 1-1164).
T1 construct: YenA1, TcA-like protein of Yersinia entomophaga (130 kDa), subunit of YenTcA; residues 45-304 and 584-1164 are resolved in the alpha-helical shell, residues 305-583 are an unmodelled domain insertion; Natively expressed, no fusion tags; Five copies stand in the YenTcA complex; also called TcA-like protein YenA1
T1 sequence (B6A877 whole entry, the tested form may be a part): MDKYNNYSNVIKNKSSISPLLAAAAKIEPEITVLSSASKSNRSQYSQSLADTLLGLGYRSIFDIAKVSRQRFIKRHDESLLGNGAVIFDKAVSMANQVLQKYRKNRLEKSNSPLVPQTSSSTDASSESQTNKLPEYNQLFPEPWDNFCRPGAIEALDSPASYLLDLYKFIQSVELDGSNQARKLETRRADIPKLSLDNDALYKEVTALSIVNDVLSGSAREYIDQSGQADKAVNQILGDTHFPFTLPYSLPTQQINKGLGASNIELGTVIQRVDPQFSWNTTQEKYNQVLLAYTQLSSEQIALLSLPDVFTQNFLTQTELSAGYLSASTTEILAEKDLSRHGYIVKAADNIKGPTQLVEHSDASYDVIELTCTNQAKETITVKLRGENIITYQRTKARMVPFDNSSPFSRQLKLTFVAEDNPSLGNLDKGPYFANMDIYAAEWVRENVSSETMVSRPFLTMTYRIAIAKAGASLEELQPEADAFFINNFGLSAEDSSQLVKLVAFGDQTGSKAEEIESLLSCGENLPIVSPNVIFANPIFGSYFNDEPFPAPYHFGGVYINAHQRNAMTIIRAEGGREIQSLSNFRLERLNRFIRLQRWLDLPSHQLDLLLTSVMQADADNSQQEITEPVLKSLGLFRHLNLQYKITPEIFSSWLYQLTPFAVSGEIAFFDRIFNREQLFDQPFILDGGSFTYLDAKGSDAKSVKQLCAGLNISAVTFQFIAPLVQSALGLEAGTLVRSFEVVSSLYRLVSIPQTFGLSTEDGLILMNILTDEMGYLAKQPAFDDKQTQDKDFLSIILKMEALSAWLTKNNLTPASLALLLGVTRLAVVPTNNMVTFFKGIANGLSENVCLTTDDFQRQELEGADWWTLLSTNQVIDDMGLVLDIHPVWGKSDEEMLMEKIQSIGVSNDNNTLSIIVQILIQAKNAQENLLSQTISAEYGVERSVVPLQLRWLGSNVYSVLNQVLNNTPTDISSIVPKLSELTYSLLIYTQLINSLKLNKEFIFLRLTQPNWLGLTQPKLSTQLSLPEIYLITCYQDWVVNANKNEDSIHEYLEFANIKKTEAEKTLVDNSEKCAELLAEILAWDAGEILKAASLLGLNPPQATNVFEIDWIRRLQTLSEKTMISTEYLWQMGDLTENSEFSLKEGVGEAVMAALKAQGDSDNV
In words: cryo-EM structure; YenTcA soluble pre-pore form, single-particle cryo-EM, 4.4 Å average resolution, C5 symmetry; 0.1 mg/mL in 25 mM Tris, 150 mM NaCl, pH 7.5, with 10 mM NDSB-195. As to conditions: both partners purified.

The target of test [2] is T2, YenA2 (Yersinia entomophaga, UniProt B6A878 1-1364).
T2 construct: YenA2, TcA-like protein of Yersinia entomophaga (156 kDa), subunit of YenTcA; UniProt entry name B6A878_9GAMM is printed; holds the shell domain (1-165; 559-812), neuraminidase-like domain (166-332; Natively expressed, no fusion tags; Five copies stand in the YenTcA complex and form the pentameric pore; also called TcA-like protein YenA2
T2 sequence (B6A878 whole entry, the tested form may be a part): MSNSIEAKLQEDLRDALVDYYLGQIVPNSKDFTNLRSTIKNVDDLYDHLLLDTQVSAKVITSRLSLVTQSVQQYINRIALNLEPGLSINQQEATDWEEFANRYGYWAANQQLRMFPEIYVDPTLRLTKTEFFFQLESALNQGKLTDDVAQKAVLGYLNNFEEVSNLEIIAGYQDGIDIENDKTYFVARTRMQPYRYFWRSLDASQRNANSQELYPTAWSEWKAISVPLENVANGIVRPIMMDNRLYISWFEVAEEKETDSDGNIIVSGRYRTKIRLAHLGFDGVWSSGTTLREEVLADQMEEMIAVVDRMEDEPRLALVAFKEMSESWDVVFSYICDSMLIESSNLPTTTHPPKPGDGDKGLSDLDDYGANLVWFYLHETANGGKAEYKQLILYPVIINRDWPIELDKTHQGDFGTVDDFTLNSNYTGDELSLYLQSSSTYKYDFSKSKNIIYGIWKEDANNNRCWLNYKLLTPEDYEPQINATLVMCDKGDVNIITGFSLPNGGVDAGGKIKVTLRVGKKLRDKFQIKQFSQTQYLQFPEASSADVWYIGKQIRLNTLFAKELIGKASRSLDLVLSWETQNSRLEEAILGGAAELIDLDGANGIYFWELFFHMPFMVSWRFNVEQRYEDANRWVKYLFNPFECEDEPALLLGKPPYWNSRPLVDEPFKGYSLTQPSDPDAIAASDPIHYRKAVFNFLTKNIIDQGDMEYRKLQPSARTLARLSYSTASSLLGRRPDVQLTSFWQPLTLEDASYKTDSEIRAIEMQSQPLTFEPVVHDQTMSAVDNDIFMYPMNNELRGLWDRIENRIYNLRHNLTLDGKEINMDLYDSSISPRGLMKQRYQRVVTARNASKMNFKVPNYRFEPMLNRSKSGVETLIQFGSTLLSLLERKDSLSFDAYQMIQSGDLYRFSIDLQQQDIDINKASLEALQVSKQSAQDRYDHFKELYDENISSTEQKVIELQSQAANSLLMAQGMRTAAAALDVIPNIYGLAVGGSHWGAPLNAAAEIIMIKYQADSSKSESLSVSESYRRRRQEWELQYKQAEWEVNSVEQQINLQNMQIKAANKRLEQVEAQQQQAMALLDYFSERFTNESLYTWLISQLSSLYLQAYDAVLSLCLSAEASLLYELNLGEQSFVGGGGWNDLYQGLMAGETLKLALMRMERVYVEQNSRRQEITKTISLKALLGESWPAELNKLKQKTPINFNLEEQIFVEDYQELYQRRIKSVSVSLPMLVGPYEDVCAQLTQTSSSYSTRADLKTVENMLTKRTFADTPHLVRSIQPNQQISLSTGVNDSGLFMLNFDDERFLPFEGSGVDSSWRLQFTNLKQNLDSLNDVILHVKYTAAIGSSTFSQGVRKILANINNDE
The description is as above. As to conditions: both partners purified.

B1: Chi2 (enzyme)
chain: MVNKYTYTSSKAMSDISDVIGEPLAAWDSQVGGRVFNVIFDGKVYTNTYWVERWQVPGIGSSDGNPHNAWKFVRAATADEINKIGNPTTADVKPTENIPSPILVEDKYTEETYSRPDVNFKEDGSQGNLSYTATRVCAPMYNHYVGDKTKPKLSAYITDWCQYDARLDGGGSKEEERGRGFDLATLMQNPATYDRLIFSFLGICGDIGNKSKKVQEVWDGWNAQAPSLGLPQIGKGHIVPLDPYGDLGTARNVGLPPESADTSIESGTFLPYYQQNRAAGLLGGLRELQKKAHAMGHKLDLAFSIGGWSLSSYFSALAENPDERRVFVASVVDFFVRFPMFSCVDIDWEYPGGGGDEGNISSDKDGENYVLLIKELRSALDSRFGYSNRKEISIACSGVKAKLKKSNIDQLVANGLDNIYLMSYDFFGTIWADYIGHHTNLYSPKDPGEQELFDLSAEAAIDYLHNELGIPMEKIHLGYANYGRSAVGGDLTTRQYTKNGPALGTMENGAPEFFDIVKNYMDAEHSLSMGKNGFVLMTDTNADADFLFSEAKGHFISLDTPRTVKQKGEYAAKNKLGGVFSWSGDQDCGLLANAAREGLGYVADSNQETIDMGPLYNPGKEIYLKSISEIKSK
notes: Chi2, endochitinase of Yersinia entomophaga, subunit of YenTcA; N-terminal domain residues 1-91 (unmodelled), chitinase domain residues 92-632 (earlier crystal structure PDB 4dws); Natively expressed, no fusion tags; Five copies stand in the YenTcA complex; also called endochitinase Chi2; Chi2 subunit
Take B1: in test [1], the binding result is given as “binds”.

B2: Chi1 (enzyme)
chain: MEKEEKSNLIYDKDPGYVWDNKNECEGAAEETYQELNYEPSISADKLTWTPTRLAKTVFNTYEDDDDFNVLCYFTDWSQYDPRIINKEIRDTGGRSADILRLNTPDGRPFKRLIYSFGGLIGDKKYSADGNASIAVRLGVATDPDDAIANHKGKTIPVDPDGAVLASINCGFTKWEAGDANERYNQEKAKGLLGGFRLLHEADKELEFSLSIGGWSMSGLFSEIAKDEILRTNFVEGIKDFFQRFPMFSHLDIDWEYPGSIGAGNPNSPDDGANFAILIQQITDAKISNLKGISIASSADPAKIDAANIPALMDAGVTGINLMTYDFFTLGDGKLSHHTNIYRDPSDVYSKYSIDDAVTHLIDEKKVDPKAIFIGYAGYTRNAKNATITTSIPSEEALKGTYTDANQTLGSFEYSVLEWTDIICHYMDFEKGEGRNGYKLVHDKVAKADYLYSEATKVFISLDTPRSVRDKGRYVKDKGLGGLFIWSGDQDNGILTNAAHEGLKRRIKNKVIDMTPFYLDSDEELPTYTEPAEPQCEACNIK
notes: Chi1, endochitinase of Yersinia entomophaga, subunit of YenTcA; earlier crystal structure PDB 3oa5 was fitted as a rigid body; Natively expressed, no fusion tags; Five copies stand in YenTcA; Chi1 is not in the deposited atomic model 6ogd; also called endochitinase Chi1; Chi1 subunit
Consider B2, for which the binding result in test [2] is reported as “binds”.
